What all share (assay): ITC
The target in assay [1] is FusB-CTD wild type (C-terminal domain of the TonB homologue FusB of Pectobacterium carotovorum LMG2410) (Pectobacterium carotovorum LMG2410).
The target in assay [2] is FusB-CTD D322N (Pectobacterium carotovorum LMG2410).
Assay [3] has as its target FusB-CTD R241K (Pectobacterium carotovorum LMG2410).
Assay [4] concerns the target FusB-CTD R241A (Pectobacterium carotovorum LMG2410).

As usually defined, the Kd is the equilibrium constant for the complex coming apart. A low value points to tighter binding. In assay [1], “SpFer E93A/E94A (from UniProt P00221 51-147) (natural protein)” yielded a Kd of 31.3 mM.

For FusANTR-GFP D53A (domain or fragment), the figures for the Kd in assay [2] and in assay [1] were 31.8 mM and 31.6 mM, respectively.

In the case of SpFer F64Y (natural protein), the Kd in assay [1] came to 30.7 mM.

Turning to “FusANTR-GFP wild type (GFP fusion construct containing the N-terminal region, residues 21-66, of FusA) (domain or fragment)”, the Kd came out at 0.0094 mM in assay [2], 25.3 mM in assay [3] and 38.8 mM in assay [4].

The values above are taken from doi:10.1101/2025.10.16.682781.
